PMC11929599

Key:
Test in all cases: two-hybrid
[1] = molecular target: SePdx D28A fused to T25 (pKT25‐SePdx D28A) (Synechococcus elongatus PCC 7942)
[2] = molecular target: SePdx Q214A fused to T25 (pKT25‐SePdx Q214A) (Synechococcus elongatus PCC 7942)
[3] = molecular target: SePdx R189A fused to T25 (pKT25‐SePdx R189A) (Synechococcus elongatus PCC 7942)
[4] = molecular target: SePdx R96A fused to T25 (pKT25‐SePdx R96A) (Synechococcus elongatus PCC 7942)
[5] = molecular target: SePdx Y31A fused to T25 (pKT25‐SePdx Y31A) (Synechococcus elongatus PCC 7942)
[6] = molecular target: SePdx G299A fused to T25 (pKT25‐SePdx G299A) (Synechococcus elongatus PCC 7942)
[7] = molecular target: SePdx T5A fused to T25 (pKT25‐SePdx T5A) (Synechococcus elongatus PCC 7942)
[8] = molecular target: SePdx Y144A fused to T25 (pKT25‐SePdx Y144A) (Synechococcus elongatus PCC 7942)

Substance | decrease of β‐galactosidase activity against WT SePdx [1] [%] | decrease of β‐galactosidase activity against WT SePdx [2] [%] | decrease of β‐galactosidase activity against WT SePdx [3] [%] | decrease of β‐galactosidase activity against WT SePdx [4] [%] | decrease of β‐galactosidase activity against WT SePdx [5] [%] | decrease of β‐galactosidase activity against WT SePdx [6] [%] | increase of β‐galactosidase activity against WT SePdx [7] [%] | decrease of β‐galactosidase activity against WT SePdx [8] [%]
CpcA1 fused to T18C (pUT18C) (from UniProt P13530 1-163) (natural protein) | 67.6 | 40.3 | 60.8 | 65.1 | 46.3 |  |  | 
PSI core protein PsaE fused to T18C (pUT18C) (from UniProt Q31NL7 1-75) (natural protein) |  |  |  |  |  | 12.2 | 3.19 | 27.2
